Test results taken from IntAct's records for PubMed 30126976.

B1: FERM and PDZ domain-containing protein 1 (Homo sapiens), Q5SYB0 (parent)
chain: MEELETSLFQTRKAHRIEQMVARWLRRSRDSSARAKVAAADGPARNPTQTLIPVRHTVKIDKDTLLQDYGFHISESLPLTVVAVTAGGSAHGKLFPGDQILQMNNEPAEDLSWERAVDILREAEDSLSITVVRCTSGVPKSSFLTEEKRARLKTNPVKVHFAEEVLISGHSQGNSLLCMPNVLKLYLENGQTKAFKFEANTTVKDIILTVKEKLSIRSIEYFALALEEQYSISRLHLLHEEELIQQVVEREESHDYRCLFRVCFVPKDPLDLLKEDPVAFEYLYLQSCSDVLQERFAVEMKCSSALRLAALHIQERIYACAQPQKISLKYIEKDWGIENFISPTLLRNMKGKDIKKAISFHMKRNQNLLEPRQKQLISAAQLRLNYLQILGELKTYGGRIFNATLMLQDRESYIALLVGAKYGISQVINSKLNIMSTLAEFANISRVELTEESEKVSVVKVYLQDVKVLTLLLESNSAKDLACLIAGYYRLLVDPVTSIFLWPGNKQQAHRVSAEEGYESRACSDSEESSEVDCVLEPLSDRRLVKLAPCRSLIKEEQPPGNSPTPEVARRGPSTCGASSTTDSAESEASDSANTESRGYRTSGSSESMDALEEDDLDTCSSSRSTFFHFGSPGLAESIDSDSQEERSGIETSGFLCLLDLAQRANPQCQKTEFSESAALETFGWAPELSTVRLDPRLYEGSHADYYSLCSSVSPASYLSDSSESTASRQGGAPPAWGQQGWTEAQPSSMLEPLALHPPLAFEDGSSDEEYYDAADKLTPPGPPSGPRDVSTAEPSATSLQNKASTSSPENSLPCGPDGRQPSRRGGVKKYAKTLRKRRSFLQTDYTSQVSFPLVPSASLESVDDVCYYDREPYLALGAPSPTVSSLQDMQGEPGLLETKALGLLAPLRETKSTNPASRVMEMEPETMETKSVIDSRVSSISAIRFRIDPNNKENSGVVPAASSSASTPHCSNPGSSGPDTAQARPSQILPLSQDLDGIAPKEPTIEHGDSSFSLSSGDPNPDRACLASNPGLNNVSQGDTLELQLEPHVQLEMGLESFCTNHIQETAPKYTEPLLSPRDEPRSDECGINPGEKIASIPTKEEPQGQLSLERDREVTNKNGTNVFQEESRKDSGDSPGDVSNNVSQTLDISSPAGKIVTSLSLDAPVTGTEQIPPHPPRDPQGQSREPPGQGCQAQEQKLFVELDLDPDFFLGKQTVSPAVPPEGIKAEAPNHVTGQDIAPRDSPEWVCFNPEPSLPEPLPCPQEDPHLETSNHCLLSEGKSDSSSICLSAEKSFLCFAPESHPEVSASLRVATSLGFAGMNEMVAPRIGMDQCSCQFSYATCFRGPQPETEEEDRDLEAHPMAPLTSPPSAGSPVVLPWRPARAHSCTTAPLSRKSHIWPEYCSRALRQLKATPASTPEGFIQLMESLLELQDILETSWGVGNKHPPEKCTWHFTESRSRLCMGSQKLLSSCRHVIRMDQSPEEMQGAVRDTFQHLVQLAGLCFQFTDCSRCSARHREAAGNLRDVVYTYHQFIEAAKSTCERGYHDLSVKLLARQCTALTAAVFCLTQKFRASTAL
B2: Ribosomal protein S6 kinase alpha-1 (Homo sapiens), Q15418 (parent)
chain: MPLAQLKEPWPLMELVPLDPENGQTSGEEAGLQPSKDEGVLKEISITHHVKAGSEKADPSHFELLKVLGQGSFGKVFLVRKVTRPDSGHLYAMKVLKKATLKVRDRVRTKMERDILADVNHPFVVKLHYAFQTEGKLYLILDFLRGGDLFTRLSKEVMFTEEDVKFYLAELALGLDHLHSLGIIYRDLKPENILLDEEGHIKLTDFGLSKEAIDHEKKAYSFCGTVEYMAPEVVNRQGHSHSADWWSYGVLMFEMLTGSLPFQGKDRKETMTLILKAKLGMPQFLSTEAQSLLRALFKRNPANRLGSGPDGAEEIKRHVFYSTIDWNKLYRREIKPPFKPAVAQPDDTFYFDTEFTSRTPKDSPGIPPSAGAHQLFRGFSFVATGLMEDDGKPRAPQAPLHSVVQQLHGKNLVFSDGYVVKETIGVGSYSECKRCVHKATNMEYAVKVIDKSKRDPSEEIEILLRYGQHPNIITLKDVYDDGKHVYLVTELMRGGELLDKILRQKFFSEREASFVLHTIGKTVEYLHSQGVVHRDLKPSNILYVDESGNPECLRICDFGFAKQLRAENGLLMTPCYTANFVAPEVLKRQGYDEGCDIWSLGILLYTMLAGYTPFANGPSDTPEEILTRIGSGKFTLSGGNWNTVSETAKDLVSKMLHVDPHQRLTAKQVLQHPWVTQKDKLPQSQLSHQDLQLVKGAMAATYSALNSSKPTPQLKPIESSILAQRRVRKLPSTTL
B3: Cysteinyl leukotriene receptor 2 (Homo sapiens), Q9NS75 (parent)
chain: MERKFMSLQPSISVSEMEPNGTFSNNNSRNCTIENFKREFFPIVYLIIFFWGVLGNGLSIYVFLQPYKKSTSVNVFMLNLAISDLLFISTLPFRADYYLRGSNWIFGDLACRIMSYSLYVNMYSSIYFLTVLSVVRFLAMVHPFRLLHVTSIRSAWILCGIIWILIMASSIMLLDSGSEQNGSVTSCLELNLYKIAKLQTMNYIALVVGCLLPFFTLSICYLLIIRVLLKVEVPESGLRVSHRKALTTIIITLIIFFLCFLPYHTLRTVHLTTWKVGLCKDRLHKALVITLALAAANACFNPLLYYFAGENFKDRLKSALRKGHPQKAKTKCVFPVSVWLRKETRV
B4: Corticotropin-releasing factor receptor 1 (Homo sapiens), P34998-1 (parent)
chain: MGGHPQLRLVKALLLLGLNPVSASLQDQHCESLSLASNISGLQCNASVDLIGTCWPRSPAGQLVVRPCPAFFYGVRYNTTNNGYRECLANGSWAARVNYSECQEILNEEKKSKVHYHVAVIINYLGHCISLVALLVAFVLFLRLRPGCTHWGDQADGALEVGAPWSGAPFQVRRSIRCLRNIIHWNLISAFILRNATWFVVQLTMSPEVHQSNVGWCRLVTAAYNYFHVTNFFWMFGEGCYLHTAIVLTYSTDRLRKWMFICIGWGVPFPIIVAWAIGKLYYDNEKCWFGKRPGVYTDYIYQGPMILVLLINFIFLFNIVRILMTKLRASTTSETIQYRKAVKATLVLLPLLGITYMLFFVNPGEDEVSRVVFIYFNSFLESFQGFFVSVFYCFLNSEVRSAIRKRWHRWQDKHSIRARVARAMSIPTSPTRVSFHSIKQSTAV

Variants of: B1
Conditions: with scrib_human SCRIB
Target sequence in this assay (Q14160 whole entry): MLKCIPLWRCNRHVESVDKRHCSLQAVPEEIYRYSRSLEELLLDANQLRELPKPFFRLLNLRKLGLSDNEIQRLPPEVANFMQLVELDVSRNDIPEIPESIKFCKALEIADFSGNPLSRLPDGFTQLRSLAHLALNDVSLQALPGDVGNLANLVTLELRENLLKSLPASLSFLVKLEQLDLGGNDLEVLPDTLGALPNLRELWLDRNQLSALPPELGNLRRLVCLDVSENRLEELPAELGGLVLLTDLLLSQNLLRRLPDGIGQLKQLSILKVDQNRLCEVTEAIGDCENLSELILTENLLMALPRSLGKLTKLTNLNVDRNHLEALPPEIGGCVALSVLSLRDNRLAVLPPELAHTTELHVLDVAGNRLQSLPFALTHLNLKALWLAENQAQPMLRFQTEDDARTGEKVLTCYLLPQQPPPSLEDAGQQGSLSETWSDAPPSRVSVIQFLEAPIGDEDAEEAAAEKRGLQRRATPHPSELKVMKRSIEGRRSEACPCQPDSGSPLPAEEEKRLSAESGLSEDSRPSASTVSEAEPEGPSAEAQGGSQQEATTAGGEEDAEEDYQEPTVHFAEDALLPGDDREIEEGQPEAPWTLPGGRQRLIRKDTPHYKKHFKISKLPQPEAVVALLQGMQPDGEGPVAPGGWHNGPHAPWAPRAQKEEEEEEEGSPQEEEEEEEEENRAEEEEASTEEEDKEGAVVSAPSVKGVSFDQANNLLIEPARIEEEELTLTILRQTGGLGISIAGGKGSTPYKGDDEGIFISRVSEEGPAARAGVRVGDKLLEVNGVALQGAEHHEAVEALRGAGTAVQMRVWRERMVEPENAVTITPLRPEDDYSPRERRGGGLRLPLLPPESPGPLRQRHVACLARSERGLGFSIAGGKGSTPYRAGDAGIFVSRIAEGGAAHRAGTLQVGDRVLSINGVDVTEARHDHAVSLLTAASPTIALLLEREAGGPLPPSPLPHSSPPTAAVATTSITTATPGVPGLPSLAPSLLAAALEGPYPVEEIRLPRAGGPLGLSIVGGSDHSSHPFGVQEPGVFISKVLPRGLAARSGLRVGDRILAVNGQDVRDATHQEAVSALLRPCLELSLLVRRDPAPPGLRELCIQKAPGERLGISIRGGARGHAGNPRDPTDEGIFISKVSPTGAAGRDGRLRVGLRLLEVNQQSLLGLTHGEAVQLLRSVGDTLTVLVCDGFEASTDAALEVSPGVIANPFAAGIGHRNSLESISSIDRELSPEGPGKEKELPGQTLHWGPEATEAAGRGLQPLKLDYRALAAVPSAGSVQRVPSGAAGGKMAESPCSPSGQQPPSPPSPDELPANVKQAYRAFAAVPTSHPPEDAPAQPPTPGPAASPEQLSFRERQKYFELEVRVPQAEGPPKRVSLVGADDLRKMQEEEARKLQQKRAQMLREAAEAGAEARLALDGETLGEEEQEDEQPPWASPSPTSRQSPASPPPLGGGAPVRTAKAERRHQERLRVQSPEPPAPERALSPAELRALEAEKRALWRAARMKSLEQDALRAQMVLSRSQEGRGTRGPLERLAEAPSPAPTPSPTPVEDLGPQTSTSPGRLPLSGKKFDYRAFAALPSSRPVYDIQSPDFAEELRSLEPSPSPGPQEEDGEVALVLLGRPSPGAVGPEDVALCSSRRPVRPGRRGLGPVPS
With S1575E the “effect of a mutation on the interaction” value was “increasing interaction strength”.

Variants of: B2
Conditions: with scrib_human SCRIB
Target sequence in this assay (Q14160 whole entry): as above
With S732E;T734E the “effect of a mutation on the interaction” value was “increasing interaction strength”. In the case of S732E, the “effect of a mutation on the interaction” value is reported as “increasing interaction strength”.

Variants of: B3
Conditions: with scrib_human SCRIB
Target sequence in this assay (Q14160 whole entry): as above
For MERKFMSLQPSISVSEMEPNGTFSNNNSRNCTIENFKREFFPIVYLIIFFWGVLGNGLSIYVFLQPYKKSTSVNVFMLNLAISDLLFISTLPFRADYYLRGSNWIFGDLACRIMSYSLYVNMYSSIYFLTVLSVVRFLAMVHPFRLLHVTSIRSAWILCGIIWILIMASSIMLLDSGSEQNGSVTSCLELNLYKIAKLQTMNYIALVVGCLLPFFTLSICYLLIIRVLLKVEVPESGLRVSHRKALTTIIITLIIFFLCFLPYHTLRTVHLTTWKVGLCKDRLHKALVITLALAAANACFNPLLYYFAGENFKDRLKSALRKGHPQKAKTKCVFPVSVWLRKEERV [T344E], the “effect of a mutation on the interaction” value was “disrupting interaction strength”.

Variants of: B3
Conditions: with dlg1_human DLG1, Q12959
Target sequence in this assay (Q12959 whole entry, looked up): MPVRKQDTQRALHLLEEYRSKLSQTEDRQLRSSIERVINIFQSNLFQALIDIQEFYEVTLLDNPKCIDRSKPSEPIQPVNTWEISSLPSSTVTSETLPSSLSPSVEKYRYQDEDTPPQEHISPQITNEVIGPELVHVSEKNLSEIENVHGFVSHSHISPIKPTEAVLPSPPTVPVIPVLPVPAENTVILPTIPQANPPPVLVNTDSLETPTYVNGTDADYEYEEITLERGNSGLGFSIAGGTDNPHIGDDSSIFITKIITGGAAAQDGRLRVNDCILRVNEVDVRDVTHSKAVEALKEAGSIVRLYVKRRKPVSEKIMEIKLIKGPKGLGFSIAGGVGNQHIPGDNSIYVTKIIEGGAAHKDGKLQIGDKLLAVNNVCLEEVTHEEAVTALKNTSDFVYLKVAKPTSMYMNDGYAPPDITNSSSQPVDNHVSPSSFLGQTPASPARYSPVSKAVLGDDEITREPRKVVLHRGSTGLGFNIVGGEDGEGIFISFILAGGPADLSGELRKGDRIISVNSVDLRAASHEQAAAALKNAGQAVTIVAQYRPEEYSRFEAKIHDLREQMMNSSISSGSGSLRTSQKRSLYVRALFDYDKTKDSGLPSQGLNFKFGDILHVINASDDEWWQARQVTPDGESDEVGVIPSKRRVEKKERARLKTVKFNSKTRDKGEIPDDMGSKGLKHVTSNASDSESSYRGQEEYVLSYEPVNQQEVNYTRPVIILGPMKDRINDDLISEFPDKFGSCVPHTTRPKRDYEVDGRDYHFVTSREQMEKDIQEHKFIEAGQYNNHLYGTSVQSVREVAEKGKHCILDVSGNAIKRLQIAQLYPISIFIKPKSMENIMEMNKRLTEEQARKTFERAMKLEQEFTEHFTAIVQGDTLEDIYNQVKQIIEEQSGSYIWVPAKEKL
In the case of MERKFMSLQPSISVSEMEPNGTFSNNNSRNCTIENFKREFFPIVYLIIFFWGVLGNGLSIYVFLQPYKKSTSVNVFMLNLAISDLLFISTLPFRADYYLRGSNWIFGDLACRIMSYSLYVNMYSSIYFLTVLSVVRFLAMVHPFRLLHVTSIRSAWILCGIIWILIMASSIMLLDSGSEQNGSVTSCLELNLYKIAKLQTMNYIALVVGCLLPFFTLSICYLLIIRVLLKVEVPESGLRVSHRKALTTIIITLIIFFLCFLPYHTLRTVHLTTWKVGLCKDRLHKALVITLALAAANACFNPLLYYFAGENFKDRLKSALRKGHPQKAKTKCVFPVSVWLRKEERV [T344E], the “effect of a mutation on the interaction” value is reported as “disrupting interaction strength”.

Variants of: B4
Conditions: with dlg1_human DLG1, Q12959
Target sequence in this assay (Q12959 whole entry, looked up): as the sequence (Q12959 whole entry, looked up) above
For MGGHPQLRLVKALLLLGLNPVSASLQDQHCESLSLASNISGLQCNASVDLIGTCWPRSPAGQLVVRPCPAFFYGVRYNTTNNGYRECLANGSWAARVNYSECQEILNEEKKSKVHYHVAVIINYLGHCISLVALLVAFVLFLRLRPGCTHWGDQADGALEVGAPWSGAPFQVRRSIRCLRNIIHWNLISAFILRNATWFVVQLTMSPEVHQSNVGWCRLVTAAYNYFHVTNFFWMFGEGCYLHTAIVLTYSTDRLRKWMFICIGWGVPFPIIVAWAIGKLYYDNEKCWFGKRPGVYTDYIYQGPMILVLLINFIFLFNIVRILMTKLRASTTSETIQYRKAVKATLVLLPLLGITYMLFFVNPGEDEVSRVVFIYFNSFLESFQGFFVSVFYCFLNSEVRSAIRKRWHRWQDKHSIRARVARAMSIPTSPTRVSFHEIKQETAV [S437E;S441E], the “effect of a mutation on the interaction” value was “increasing interaction strength”.
